From US20250304707A1 (JOINT STOCK COMPANY BIOCAD, published 2025)

T1: human BCMA on the surface of RPMI8226 cells (human, UniProt Q02223 1-184)
T1 construct: whole, on cells; also called BCMA receptor; RPMI8226 (BCMA+)
T1 sequence (looked up): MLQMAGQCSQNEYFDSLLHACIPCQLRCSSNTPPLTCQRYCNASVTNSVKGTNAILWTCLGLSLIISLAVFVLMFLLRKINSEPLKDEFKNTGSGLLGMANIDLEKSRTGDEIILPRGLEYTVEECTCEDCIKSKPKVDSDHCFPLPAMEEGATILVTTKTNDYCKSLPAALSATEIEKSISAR

T2: human BCMA (soluble analyte of Examples 8 and 14) (human, UniProt Q02223 1-54, limits assumed)
T2 sequence (looked up): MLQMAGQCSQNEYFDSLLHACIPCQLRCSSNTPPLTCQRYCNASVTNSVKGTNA

B1: Antibody 01-001 (antibody, human IgG1, kappa, L234A L235A, V domains shown)
VH: EVQLVQSGGGLVQPGGSLRLSCAVSGFTLSSSAMSWVRQAPGKGFEWVSGYNGGSDRAGFADSVEGRFTISRDNAKNTLYLQMNSLKPEDTAVYYCARYIANSGTYYWDYWGQGTLVTVSS
VL: QPVLTQPPSASGTPGQRVTISCSGSSSNIGSNTVNWYQQLPGTAPKLLIYNDSQRPSGVPDQFSGSKSGTSASLAISGLQSDNEADYYCAAWDGSLNVWMFGGGTKVTVLR
notes: Full-length human IgG1 with L234A/L235A (pEE-HCLALA IgG1 vector) and CK light chain constant domain (pEE-CK), made in CHO-T cells; also called candidate 01
B2: Antibody 01-030 (antibody, human IgG1, kappa, L234A L235A, V domains shown)
VH: EVQLVQSGGGLVQPGGSLRVSCAASGFSFSSGLMSWVRQAPGKGFEWVSGYNGGSDRAGFADSVEGRFTISRDNAKNTLYLQMNSLKPEDTAVYYCARYIANSGTYYWDYWGQGTLVTVSS
VL: QSALTQPPSASGTPGQRVTISCSGSISNIGSNTVNWYQHLPGTAPKLLIYNHNQRPSGVPDRFSGSTSGTSASLAISGLQSEDEADYFCATWDDSLSAWLFGGGTKLTVLR
notes: Full-length human IgG1 with L234A/L235A (pEE-HCLALA IgG1 vector) and CK light chain constant domain (pEE-CK), made in CHO-T cells; also called candidate 030
B3: Antibody 01-027 (antibody, human IgG1, kappa, L234A L235A, V domains shown)
VH: EVQLVQSGGGLVQSGGSLRVSCAASGFTFSSGLMSWVRQAPGKGFEWVSGYNGGSDRAGYTDSVKGRFTISRDNAKNTLYLQMNSLKPEDTAVYYCARYIANSGTYYWDYWGQGTTVTVSS
VL: QAVLTQPPSASGTPGQRVSISCSGGISNIGSNIVNWYQHLPGTAPKLLIYSGNQRPSGVPDRFSGSKSGTSASLAISGLQSEDEADYYCSSWDSDLRNWVFGGGTKLTVLR
notes: Full-length human IgG1 with L234A/L235A (pEE-HCLALA IgG1 vector) and CK light chain constant domain (pEE-CK), made in CHO-T cells; also called candidate 027
B4: Antibody 01-016 (antibody, human IgG1, kappa, L234A L235A, V domains shown)
VH: EVQLVQSGGGLVQPGGSLRLSCAVSGFTFSSSVMSWVRQAPGKGFEWVSGYNGGSDRAGFADSVEGRFTISRDNAKNTLYLQMNSLKPEDTAVYYCARYIANSGTYYWDYWGQGTLVTVSS
VL: QPVLTQPPSVSEAPRQRVTISCSGSSSNIGNNAVNWYQQLPGKAPKLLIFKNNQRPSGVPDRFSGSKSGTSASLVISGLQSEDEADYYCAAWDGSLNAWMFGGGTKLTVLR
notes: Full-length human IgG1 with L234A/L235A (pEE-HCLALA IgG1 vector) and CK light chain constant domain (pEE-CK), made in CHO-T cells; also called candidate 016
B5: Antibody 01-021 (antibody, human IgG1, kappa, L234A L235A, V domains shown)
VH: QVQLVQSGGGLVQPGGSLRLSCAASGFTFSSGLMSWVRQAPGKGFEWVSGYNGGSDRAGFADSVEGRFTISRDNAKNTLYLQMNSLKPEDTAVYYCARYIANSGTYYWDYWGQGTLVTVSS
VL: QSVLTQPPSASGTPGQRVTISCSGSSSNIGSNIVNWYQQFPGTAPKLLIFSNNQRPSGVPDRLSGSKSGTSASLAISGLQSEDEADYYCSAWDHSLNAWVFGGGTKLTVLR
notes: Full-length human IgG1 with L234A/L235A (pEE-HCLALA IgG1 vector) and CK light chain constant domain (pEE-CK), made in CHO-T cells; also called candidate 021
B6: Antibody 01-006 (antibody, human IgG1, kappa, L234A L235A, V domains shown)
VH: EVQLVQSGGGLVQPGGSLRLSCSASGFTFSSGLMSWVRQAPGKGFEWVSGYNGGSDRAGYTDSVKGRFTISRDNAKNTLYLQMNSLKPEDTAVYYCARYIANSGTYYWDYWGQGTLVTVSS
VL: QAVLTQPPSVSGTPGQRVTISCSGSTSNIGHRTVNWYQQFPGAAPKLLIYRNNQRPSGVPARFSGSKSGTSASLAISGLQSEDEADYHCAAWDDSLTAWVFGGGTQLTVLR
notes: Full-length human IgG1 with L234A/L235A (pEE-HCLALA IgG1 vector) and CK light chain constant domain (pEE-CK), made in CHO-T cells; also called candidate 06
B7: Antibody 01-025 (antibody, human IgG1, kappa, L234A L235A, V domains shown)
VH: EVQLVQSGGGLVQSGGSLRVSCAASGFTFSSGLMSWVRQAPGKGFEWVSGYNGGSDRAGYTDSVKGRFTISRDNAKNTLYLQMNSLKPEDTAVYYCARYIANSGTYYWDYWGQGTTVTVSS
VL: QPVLTQPPSVSEAPRQRVTISCSGSSSNIGNNAVNWYQQLPGKAPKLLIYSTNQRPSGVPDRFSGSKSGTSASLAISGLQSEDEADYYCAAWDDRVSAWLFGGGTKLTVLR
notes: Full-length human IgG1 with L234A/L235A (pEE-HCLALA IgG1 vector) and CK light chain constant domain (pEE-CK), made in CHO-T cells; also called candidate 025
B8: Antibody 01-037 (antibody, human IgG1, kappa, L234A L235A, V domains shown)
VH: EVQLVQSGGGLVQSGGSLRVSCAASGFTFSSGLMSWVRQAPGKGFEWVSGYNGGSDRAGYTDSVKGRFTISRDNAKNTLYLQMNSLKPEDTAVYYCARYIANSGTYYWDYWGQGTTVTVSS
VL: SYVLTQPPSASGTPGQRVTISCSGTRSNIGTNTVNWYQQLPGTAPKLLIYRNNQRPSGVPDRFSGSKSGTSASLAISGLQSEDEADYYCAVWDDRVSAWLFGGGTKLTVLR
notes: Full-length human IgG1 with L234A/L235A (pEE-HCLALA IgG1 vector) and CK light chain constant domain (pEE-CK), made in CHO-T cells; also called candidate 037
B9: Antibody 01-026 (antibody, human IgG1, kappa, L234A L235A, V domains shown)
VH: EVQLVQSGGGLVQSGGSLRVSCAASGFTFSSGLMSWVRQAPGKGFEWVSGYNGGSDRAGYTDSVKGRFTISRDNAKNTLYLQMNSLKPEDTAVYYCARYIANSGTYYWDYWGQGTTVTVSS
VL: QSVLTQPPSVSGAPGQRVTISCTGSSSNIGAGYDVHWYQQLPGTAPKLVIYGNTNRPSGVPDRFSGSKSGTSASLAISGLQSEDEADYYCAAWDDSLNGWVFGGGTKLTVLR
notes: Full-length human IgG1 with L234A/L235A (pEE-HCLALA IgG1 vector) and CK light chain constant domain (pEE-CK), made in CHO-T cells; also called candidate 026
B10: Antibody 01-022 (antibody, human IgG1, kappa, L234A L235A, V domains shown)
VH: EVQLVQSGGGLVQSGGSLRVSCAASGFTFSSGLMSWVRQAPGKGFEWVSGYNGGSDRAGYTDSVKGRFTISRDNAKNTLYLQMNSLKPEDTAVYYCARYIANSGTYYWDYWGQGTTVTVSS
VL: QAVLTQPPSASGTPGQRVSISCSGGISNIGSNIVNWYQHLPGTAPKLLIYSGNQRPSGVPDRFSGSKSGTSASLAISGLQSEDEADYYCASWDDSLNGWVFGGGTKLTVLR
notes: Full-length human IgG1 with L234A/L235A (pEE-HCLALA IgG1 vector) and CK light chain constant domain (pEE-CK), made in CHO-T cells; also called candidate 022
B11: Antibody 01-024 (antibody, human IgG1, kappa, L234A L235A, V domains shown)
VH: EVQLVQSGGGLVQSGGSLRVSCAASGFTFSSGLMSWVRQAPGKGFEWVSCYNGGSDRAGYTDSVKGRFTISRDNAKNTLYLQMNSLKPEDTAVYYCARYIANSGTYYWDYWGQGTTVTVSS
VL: QAVLTQPPSASGTPGQRVSISCSGGISNIGSNIVNWYQHLPGTAPKLLIYSGNQRPSGVPDRFSGSKSGTSASLAISGLQSEDEADYYCSSWDSDLRNWVFGGGTKLTVLR
notes: Full-length human IgG1 with L234A/L235A (pEE-HCLALA IgG1 vector) and CK light chain constant domain (pEE-CK), made in CHO-T cells; also called candidate 024
B12: Antibody 01-033 (antibody, human IgG1, kappa, L234A L235A, V domains shown)
VH: EVQLVQSGGGLVQPGGSLRLSCAASGFTFSSGLMSWVRQAPGGFEWVSGYNGGSDRAGFADSVEGRFTISRDNAKNTLYLQMNSLKPEDTAVYYCARYIANSGTYYWDYWGQGTTVTVSS
VL: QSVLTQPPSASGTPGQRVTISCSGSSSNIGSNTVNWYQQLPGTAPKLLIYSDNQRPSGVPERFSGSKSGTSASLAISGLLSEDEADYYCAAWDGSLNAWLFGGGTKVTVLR
notes: Full-length human IgG1 with L234A/L235A (pEE-HCLALA IgG1 vector) and CK light chain constant domain (pEE-CK), made in CHO-T cells; also called candidate 033

Tests used:
[1] = molecular target: T1, human BCMA on the surface of RPMI8226 …; test: flow cytometry on RPMI8226 (BCMA+) cells, anti-human Fc-PE, one antibody concentration (not given)
[2] = molecular target: T2, human BCMA (soluble analyte of Examples …); test: BLI competition, APRIL/TNFSF13 (competitor) on AR2G sensors, premix 710 nM antibody + 71 nM human BCMA; without antibody 0.6588 nm

Binder | Fluorescent signal level (sample/background) [1] | Response (premix of antibody and BCMA on APRIL sensors) [2] [nm]
B1 | 10.7 | -0.0081
B2 | 16.5 | -0.0066
B3 | 19.1 | 0.017
B4 | 7.87 | -0.0062
B5 | 9.99 | -0.0015
B6 | 9.61 | 0.0464
B7 | 15 | 0.0259
B8 | 11.7 | 0.0304
B9 | 12.1 | 0.0111
B10 | 9.57 | 0.013
B11 | 19.9 | 0.0151
B12 | 14.7 | -0.0078
